Among the data in publication PMC6623548, “Targeting Mannitol Metabolism as an Alternative Antimicrobial Strategy Based on the Structure-Function Study of Mannitol-1-Phosphate Dehydrogenase in Staphylococcus aureus” (mBio, 2019) are Ki and Km values, retold here.

Series [1] deals with T1, mannitol-1-phosphate dehydrogenase (SaM1PDH) (Staphylococcus aureus, UniProt Q2FEX4).
T1 construct: gene mtlD
The series is described as follows: F6P reductase activity, NADH absorbance, Lineweaver-Burk kinetics. It counts as biochemical.

The test system of series [2] is O=C(CO)[C@@H](O)[C@H](O)[C@H](O)COP(=O)(O)O. Briefly: purified protein. Particulars: NADH active site; phosphate moiety at Arg287 and Arg294 (docking, supported by mutants).
For series [3], the system named is O=P(O)(O)OC[C@@H](O)[C@@H](O)[C@H](O)[C@H](O)CO. Briefly: purified protein. Particulars: NAD+ active site; phosphate moiety at Arg287 and Arg294 (docking, supported by mutants).

A word on the Ki: it is the dissociation constant of the complex between target and ligand, obtained from inhibition or displacement. Low readings indicate tighter binding, high ones weaker binding. In turn, `Cc1c(O)c(O)cc2c1CC=C1[C@@]2(C)CC[C@@]2(C)[C@@H]3C[C@](C)(C(=O)O)CC[C@]3(C)CC[C@]12C` [DHCL, dihydrocelastrol] displayed a Ki in series [1] of 4 µM.

For orientation: Km means the substrate concentration at which the rate is half of its maximum. Turning to “mannitol-1-phosphate dehydrogenase (SaM1PDH) (Staphylococcus aureus subsp. aureus USA300)”, the Km in series [2] is 88.6 µM; in series [3] it was 188 µM.
